A short description of the data set: label from the status in PepcDB records.
For “MGHHHHHHSHSSFQTMDQMVSNMRNYMQKLERNFGQLSVDPNGHSFCSSSVMTYSKIGDEP”, the protein production entry is reported as “failed”.

Take “MGHLSAPLHRVRVPWQGLLLTASLLTFWNPPTTAQLTTESMPFNVAEGKEVLLLVHNLPQQLFGYSWYKGERVDGNRQIVGYAIGTQQATPGPANSGRETIYPNASLLIQNVTQNDTGFYTLQVIKSDLVNEEATGQFHVYPELPKPSISSNNSNPVEDKDAVAFTCEPETQDTTYLWWINNQSLPVSPRLQLSNGNRTLTLLSVTRNDTGPYECEIQNPVSANRSDPVTLNVTYGPDTPTISPSDTYYRPGANLSLSCYAASNPPAQYSWLINGTFQQSTQELFIPNITVNNSGSYTCHANNSVTGCNRTTVKTIIVTELSPVVAKPQIKASKTTVTGDKDSVNLTCSTNDTGISIRWFFKNQSLPSSERMKLSQGNTTLSINPVKREDAGTYWCEVFNPISKNQSDPIMLNVNYNALPQENGLSPGAIAGIVIGVVALVALIAVALACFLHFGKTGRASDQRDLTEHKPSVSNHTQDHSNDPPNKMNEVTYSTLNFEAQQPTQPTSASPSLTATEIIYSEVKKQ”: the protein production result is listed as “failed”.

“MGIKHLNLTVADVVAAREFLEKYFGLTCSGTRGNAFAVMRDNDGFILTLMKGKEVQYPKTFHVGFPQESEEQVDKINQRLKEDGFLVEPPKHAHAYTFYVEAPGGFTIEVMC”: the protein production entry is recorded as “not failed”.

Regarding “MGILSGNPQDEPLHYGEVFSTWTYLSTNNGLINGYRSFINHTGDEDLKNLIDEAIQAMQDENHQLEELLRSNGVGLPPAPPDRPAARLDDIPVGARFNDPEISATISMDVAKGLVTCSQIIGQSIREDVALMFSQFHMAKVQFGGKMLKLNKNKGWLIPPPLHSDRPIKE”, the protein production entry is “not failed”.

For “MGIPEEIPPVFKTAVDVLRGASFGVADASILGYPATSMTLNQQVDNFRSMKSNWIDDFIGRSLFMIYIGTEDKLNFTKNKPNAASICHFRY”, the protein production entry was “failed”.

On to “MGIREDIKTVFEKDPAARSTLEVLCCYPGLHAIWMHRVAHSLWNKDLLFLARLTSHISRALTGIEIHPGAKLGKRVFIDHGSGVVIGETAEVGDDVLIYMGVVLGGTALEKKKRHPTVENNAVLGSGAIVLGPITIGRGAKVGAGSVVVRSVPPEATVVGVPARIAGTPQPSAPSEQLDHNKLPDPVLTVISQVLDRMSRLEERFQAHEKASTTPVPVSFVSSENPSVKKDEQIYSLLKDVIDPAVGIDIVNLGFVKEVTVNGTNVDVNLVLTTSACPMIEYFRNQVKRKVMGIKGIENVTVNILDEPWKWDGAGRQAFH”, for which the protein production entry is given as “failed”.

For the sequence “MGIRRLVSVITRPIINKVNSSGQYSRVLATREDQDKASPKYMNNDKIAKKPYTYRLFSILGILSICSLLLISLLKPFNGADAPQCESIYMFPSYARIDGFDERYTPLAHKYHLYLYREQSVDREPLNGDELQLDGIPVLFIPGNAGSFRQCRSIASACSNIYFDSNTRATLRNENVRNLDFFTADFNEDFTAFHGETMLDQAEYLNDAIKYILSLYERTPDYPHPKPQSVIIVGHSMGGIVSRVMLTLKNHVPGSISTILTLSSPHAASPVTFDGDILKLYKNTNEYWRKQLSQNDSFFSKNISLVSITGGILDTTLPADYASVEDLVSLENGFTSFTTTIPDVWTPIDHLAIVWCKQLREVLARLLLESIDASKPEKVKPLNQRLQIARKLLLSGFEDYSWMNSKLNYPQENLQEFSDNFFSDYATLEMNDVLDFEMFNLEKWHNNYTKINIPSNISSTEHLHFTLLTSLDMPMIYFCTESRVNLSCITAVDSILTVPRSSKDTQFAADSSFGEAKNPFKAVSVGKNILQKYDYLMISKPTYGEFSEQEGMEDNQGFLLALLRNVSNVQIVNTTPSQILLFGEQLHLDGKDIEQVISFSNLWDSLLSYKLETKIEASNEGIASEETLFQPFIRQWVYEPFESKWHLNIINKSLDINMHNVAPFIPLNESEPRSLQLSFFIPPGMSLEAKMTINWSLTLKMLFIRYRLALASFPVAFIALVLSYQFYWYNKTSEFPSFDSTLGYILRKHGILMFFTLFLASPVVNNKLVQRILYLLDPVGLNYPFLLSERNMHANFYYLGIRDWFMSTIGILFGVMTVGLLALVSKIFGSLEILVIFLQRKLSKKNTEDKEAFDTIEHKAYGKGRLMASVLLLLLVFFHIPYQMAFVISLVIQIATCIRVALLKLSNNEQKLNLLNYNMTLLLLLLFVSAINIPIIIVFLHNVAIKWETSFRSHHNILAVAPIIFLVGNNSIFKMPNSVPLDTWDGKVTIILFVYLTVFSFIYGIRNLYWIHHLVNIICAWLLFFETIH”, the protein production entry is “failed”.

(Values after a protein production outcome set (Wang et al. 2014).)
